Results from patent US7666414B2, “Methods for treating prostate cancer using modified antibodies to prostate-specific membrane antigen” (Cornell Research Foundation, Inc., priority 2001, dated 2010).
Read-outs that look alike come from different tables or passages of the source.

What was measured:
[1] = tested on: metastatic androgen-independent prostate cancer; test: Phase 1 dose-escalating trial of DM1 conjugated deJ591; type: in vivo, human
Protocol: Based upon emerging clinical safety and PK, repeat dosing at four week intervals was subsequently permitted.
DLT is defined as the occurrence of one or more of the following:
• Grade 4 thrombocytopenia (platelet count <10,000/mm3) • Requirement for platelet transfusion and/or other methods to increase platelet count • Febrile neutropenia (ANC <1000/mm^3 concurrent with a temperature >38.5° C.). (Per the Infection/Febrile Neutropenia subsection of the NCI CTC version 2.0, febrile neutropenia is, by definition, a >Grade 3 toxicity) • Grade 4 neutropenia without fever of >7 days duration • Grade 3 neutropenia requiring granulocyte colony-stimulating factor (G-CSF) administration • Grade 4 anemia (hemoglobin <6.5 g/dL) • Grade 3 anemia (hemoglobin 6.5-<8.0 g/dL) in a subject receiving EpogenÒNon-hematologic • Any Grade 3 non-hematologic toxicity considered by the investigator to be possibly related to study drug MTD is defined as the highest dose level with an observed incidence of DLT in no more than 1 out of 6 subjects.
There will be a 4 week (28 days±2 days) interval between dose administrations. […] Subjects will receive the same dose administered on day 1 (Visit 1) of their first infusion.
The starting dose is 18 mg/m2. Subjects will be followed for 3 weeks after the first dose to determine dose escalation. Dose escalation will continue until DLT and MTD are determined. Two phases of dose escalation will be used. In the first phase, one subject will be enrolled at each dose level. In the second phase, three subjects will be enrolled at each dose level. The planned dose increments are 80%, 60%, 40%, 30%, 30%, 30%, 30%, 30% and 30% above the previous dose, with a total of ten dose levels planned. All dose increments will be adjusted to 30% above the previous dose if DLT or two or more occurrences of non dose-limiting grade 2 or greater drug-related toxicity (NDLT) are observed in subjects treated at any of the first three dose levels. Non dose-limiting grade 2 or greater toxicity includes grade 2 or 3 hematologic toxicity and grade 2 non-hematologic toxicity. Drug-related toxicity is toxicity considered by the investigator to be related to study drug. In the first phase, one subject will be enrolled at the lowest dose level and observed for 3 weeks to ensure that there are no significant adverse events. If no DLT or NDLT is observed during the 3 week observation period, dose escalation will continue and a new subject will be enrolled at the next predefined dose level. Single subjects will continue to be enrolled and observed at sequentially increasing dose levels until one subject experiences a DLT or a NDLT. If DLT is observed in a single subject at any dose level in the first phase, the second phase will begin, where 3 subjects per dose level will be enrolled. The dose assignment for the first subject enrolled in the second phase will be one dose level lower than the dose level at which DLT is observed. If NDLT is observed in the subject treated at any of the first three dose levels, dose escalation will stop and two more subjects will be enrolled at the current dose level. Subsequent dose escalation and enrollment will be determined by the number and grade of toxicities observed in these two additional subjects. If DLT or NDLT is not observed, the first phase will continue. Dose escalation will proceed to the next predefined dose level, with one subject enrolled at that dose level. If DLT is observed in one subject, three subjects will be enrolled at the current dose level and the second phase will begin. The dose increments for subsequent dose escalations will be 30% for the remainder of the study. If DLT is observed in both subjects, dose escalation will stop and three subjects will be enrolled at the previous dose level, marking the beginning of the second phase. The previous dose level will be evaluated as potential MTD. No further dose escalation will occur. […]

[2] = male mice; for AUC, analyte Total deJ591 / AUC, analyte deJ591-DM1: 0-336 hours
[3] = tested on: micronucleated polychromatic erythrocytes; settings: 30, 48, and 90 mg/m^2
[4] = single IV deJ591-DM1 10 mg/kg (30 mg/m^2)
[5] = single IV deJ591-DM1 30 mg/kg (90 mg/m^2)
[6] = single IV deJ591-DM1 90 mg/kg (270 mg/m^2)

Substance: deJ591-DM1: deJ591 conjugated via SPP disulfide linker to the maytansinoid DM1, DM1/antibody ratio about 3.5
- tolerability ([1]; 18 to 343 mg/m^2): well-tolerated in the majority of patients
- MTD ([1]; 23 patients, 18 to 343 mg/m^2): ≥ 343 mg/m^2
- DLT ([1]; highest dose level 343 mg/m^2): Only one DLT, an uncomplicated febrile neutropenia
- PK of antibody related analytes (J591-DM1, Total J591 and free J591) ([1]; in vivo): typical of monoclonal antibodies
- Plasma levels of DM1-SH ([1]; in vivo): detectable
- anti-antibodies ([1]; in vivo): No anti-antibodies against DM1 conjugated deJ591, deJ591 or DM1 were detected
- disease response ([1]; one patient, 264 mg/m^2): PR by RECIST criteria
- durable decrease in PSA ([1]; one patient, 264 mg/m^2): 70%
- sustained PSA decline ([1]; one patient, 343 mg/m^2): > 50%
- Tmax, analyte Total deJ591 [2, 4]: 30 min
- Tmax, analyte deJ591-DM1 [2, 4]: 30 min
- AUC, analyte Total deJ591 [2, 4]: 8920 µg·h/mL
- AUC, analyte deJ591-DM1 [2, 4]: 3260 µg·h/mL
- Tmax, analyte Total deJ591 [2, 5]: 4.8 min
- Tmax, analyte deJ591-DM1 [2, 5]: 4.8 min
- AUC, analyte Total deJ591 [2, 5]: 21000 µg·h/mL
- AUC, analyte deJ591-DM1 [2, 5]: 5960 µg·h/mL
- Tmax, analyte Total deJ591 [2, 6]: 4.8 min
- Tmax, analyte deJ591-DM1 [2, 6]: 4.8 min
- AUC, analyte Total deJ591 [2, 6]: 62300 µg·h/mL
- AUC, analyte deJ591-DM1 [2, 6]: 30600 µg·h/mL
- increases in micronucleated polychromatic erythrocytes [3]: positive
